Reference: the Human Domainome abundance scans (Beltran et al. 2025)
± gives the uncertainty stated by the source.

B1: Kinesin-like protein KIF16B, residues 1213 to 1273; numbered along this chain, Q96L93 (parent)
chain: ETWTVFRRYSRFREMHKTLKLKYAELAALEFPPKKLFGNKDERVIAERRSHLEKYLRDFFS

Variants of: B1
Experiment: abundance fitness (aPCA) (normalised: wild type 0, dead -1); higher = more abundant; growth selection in yeast, the domain comes from the species named
Details: Homo sapiens

Abundance fitness of substitutions, site by site:
F37: V -0.202 ± 0.088, G -0.334 ± 0.076, R -0.35 ± 0.072, A -0.451 ± 0.12, D -0.2 ± 0.1, E -0.407 ± 0.056, P -0.573 ± 0.14, K -0.189 ± 0.094, L -0.271 ± 0.081, I -0.111 ± 0.14, S -0.446 ± 0.061, C -0.631 ± 0.3, Q -0.476 ± 0.12, T -0.566 ± 0.096, H -0.597 ± 0.45, W -0.734 ± 0.23
L36: K -0.463 ± 0.14, Q -0.976 ± 0.37, D -0.596 ± 0.3, A -0.41 ± 0.11, R -0.634 ± 0.1, P -0.317 ± 0.15, W 0.27 ± 0.088, Y -0.525 ± 0.21, E -0.592 ± 0.1, M -0.586 ± 0.23, V -0.435 ± 0.085, F -0.02 ± 0.31, T -0.453 ± 0.13, S -0.67 ± 0.15, H -0.826 ± 0.24, G -0.658 ± 0.099
D41: N 0.08 ± 0.07, I 0.394 ± 0.1, C 0.101 ± 0.12, R -0.184 ± 0.048, Y 0.057 ± 0.11, H -0.025 ± 0.22, G 0.038 ± 0.056, E -0.07 ± 0.076, M 0.231 ± 0.075, V 0.159 ± 0.069, W 0.354 ± 0.059, P -0.167 ± 0.11, Q -0.064 ± 0.14, K 0.028 ± 0.073, A 0.154 ± 0.049, T -0.101 ± 0.12, S 0.065 ± 0.061, L 0.332 ± 0.044, F 0.149 ± 0.099
N39: I 0.06 ± 0.13, R 0.04 ± 0.041, M -0.063 ± 0.063, G 0.036 ± 0.065, S -0.033 ± 0.07, V -0.011 ± 0.077, A 0.174 ± 0.16, F -0.246 ± 0.16, Y -0.347 ± 0.078, E -0.397 ± 0.13, K 0.203 ± 0.11, H 0.05 ± 0.16, Q 0.054 ± 0.12, P -0.102 ± 0.12, T -0.291 ± 0.082, W -0.108 ± 0.063
R43: D -0.31 ± 0.12, E -0.22 ± 0.1, F -0.249 ± 0.45, W -0.155 ± 0.076, V -0.099 ± 0.049, L -0.282 ± 0.065, K 0.017 ± 0.077, T 0.018 ± 0.063, Y -0.489 ± 0.12, I -0.227 ± 0.23, G 0.209 ± 0.047, M -0.32 ± 0.087, N 0.137 ± 0.1, P -0.004 ± 0.11, Q 0.003 ± 0.077, C -0.097 ± 0.33, H 0.129 ± 0.085, A 0.033 ± 0.052
K34: A 0.368 ± 0.24, V 0.06 ± 0.094
K40: Q -0.164 ± 0.36, G -0.269 ± 0.17
I45: E 0.107 ± 0.071, N 0.031 ± 0.054, L 0.051 ± 0.044, K 0.281 ± 0.053, F 0.158 ± 0.06, P 0.271 ± 0.048, D 0.057 ± 0.061, V 0.009 ± 0.048, T 0.158 ± 0.043, M 0.062 ± 0.047, A 0.177 ± 0.041, R 0.133 ± 0.039, G 0.264 ± 0.043, C 0.133 ± 0.043, H 0.11 ± 0.062, Q 0.174 ± 0.046
E42: L 0.164 ± 0.065, I 0.053 ± 0.17, Q -0.056 ± 0.067, N 0.306 ± 0.14, D -0.031 ± 0.1, C 0.044 ± 0.097, F 0.224 ± 0.11, G 0.266 ± 0.05, K 0.227 ± 0.1, V -0.012 ± 0.069, Y -0.242 ± 0.19, T 0.078 ± 0.11, S 0.186 ± 0.078, H -0.476 ± 0.24, R 0.122 ± 0.044, W 0.268 ± 0.094, A -0.011 ± 0.073
G38: S -0.234 ± 0.082, Y -0.8 ± 0.38, K -0.346 ± 0.1, W -0.144 ± 0.061, L -0.458 ± 0.064, D -0.678 ± 0.14, T -0.061 ± 0.072, P -0.279 ± 0.1, N -0.195 ± 0.16, I -0.347 ± 0.18, A -0.202 ± 0.053, C -0.46 ± 0.16, R -0.145 ± 0.044, H -0.151 ± 0.16, Q -0.076 ± 0.073, E -0.173 ± 0.088, F -0.224 ± 0.13, M -0.492 ± 0.11
V44: R 0.117 ± 0.051, D 0.24 ± 0.19, K 0.18 ± 0.2, S 0.351 ± 0.086, G 0.188 ± 0.053, N -0.06 ± 0.13, A 0.029 ± 0.086, W 0.112 ± 0.1, C 0.316 ± 0.19, T 0.263 ± 0.16, P 0.299 ± 0.12, Q 0.047 ± 0.1, E -0.145 ± 0.11, Y -0.215 ± 0.34
P33: Y -0.378 ± 0.24
K35: G -0.148 ± 0.062, E -0.786 ± 0.26, M -0.36 ± 0.13, T -0.585 ± 0.41, Q -0.233 ± 0.4, N 0.034 ± 0.12, V -0.34 ± 0.12, Y -0.073 ± 0.16, D -0.717 ± 0.35, A -0.204 ± 0.19, I -0.521 ± 0.23, S -0.108 ± 0.074
